Reference: patent US20250197495A1 (Bristol-Myers Squibb, published 2025)

Molecular target: T1, cynomolgus LAG-3 (cynomolgus)
T1 construct: whole, on cells; also called primate LAG-3
Test: flow cytometry on transfected CHO cells and activated cynomolgus T cells; which cell type gives which end is not stated

EC50: 21.5 to 34.3 nM
B1: BMS-986016 (antibody, human IgG4 S228P, kappa, V domains shown)
VH: QVQLQQWGAGLLKPSETLSLTCAVYGGSFSDYYWNWIRQPPGKGLEWIGEINHRGSTNSNPSLKSRVTLSLDTSKNQFSLKLRSVTAADTAVYYCAFGYSDYEYNWFDPWGQGTLVTVSS
VL: EIVLTQSPATLSLSPGERATLSCRASQSISSYLAWYQQKPGQAPRLLIYDASNRATGIPARFSGSGSGTDFTLTISSLEPEDFAVYYCQQRSNWPLTFGQGTNLEIKR
notes: Fully human IgG4 with the stabilizing hinge mutation S228P; also called anti-LAG-3 antibody
